This data set is described as follows: immunoblot, H460, A549, HCC827 cells. The following applies: glycan gained; control: mock vector.

Turning to PD-L1: RPN1-HA overexpression, the expression_or_secretion entry is given as “increases”.

The values are drawn from paper PMC11699195.
